Measurements published in paper PMC9231623, “ESCPE-1 mediates retrograde endosomal sorting of the SARS-CoV-2 host factor Neuropilin-1” (Proceedings of the National Academy of Sciences of the …, 2022).

Tests used:
SNX5 PX domain = molecular target: T1, SNX5 PX domain (UniProt Q9Y5X3 25-172); assay: ITC; Microcal ITC200, 298 K; 50 mM Hepes pH 7.5, 200 mM NaCl, 0.5 mM TCEP; SNX5/6 PX titrated with NRP1 peptide, 13 injections; single site binding model; mean of three experiments; conditions: both partners purified
T1 construct: PX domain of sorting nexin 5, from a pGEX-4T-2 construct; also called PX domain of SNX5; source: E. coli BL21 (DE3), purified (glutathione Sepharose 4B, thrombin cleavage, Superdex 75 gel filtration)
T1 sequence (looked up): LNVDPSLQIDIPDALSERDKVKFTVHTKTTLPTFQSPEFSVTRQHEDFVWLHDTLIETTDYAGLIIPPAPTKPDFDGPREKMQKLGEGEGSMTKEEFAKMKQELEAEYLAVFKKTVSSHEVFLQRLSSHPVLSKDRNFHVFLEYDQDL

SNX6 PX domain = molecular target: T2, SNX6 PX domain (UniProt Q9UNH7 26-173); assay: as above; conditions: both partners purified
T2 construct: PX domain of sorting nexin 6, from a pGEX-4T-2 construct; also called PX domain of SNX6; source: E. coli BL21 (DE3), purified (glutathione Sepharose 4B, thrombin cleavage, Superdex 75 gel filtration)
T2 sequence (looked up): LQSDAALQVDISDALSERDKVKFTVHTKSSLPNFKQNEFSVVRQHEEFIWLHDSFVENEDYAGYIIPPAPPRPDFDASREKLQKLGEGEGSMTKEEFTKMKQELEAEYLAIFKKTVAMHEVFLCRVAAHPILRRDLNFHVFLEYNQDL

B1: NRP1 peptide (residues 894 to 918 of the cytosolic tail) (peptide)
peptide: not shown
notes: Neuropilin-1 cytosolic tail, residues 894 to 918; only stretches of it are printed (898-NYNFELV-904, 905-DG-906, 907-VKLKKD-912); also called synthetic peptide corresponding to these residues in NRP1; source: synthetic peptide
- Kd (SNX5 PX domain): 19.8 µM
- Kd (SNX6 PX domain): 14.3 µM
